Measurements published in US20080253996A1, “Use of Sdf-1 for the Treatment and/or Prevention of Neurological Diseases” (LABORATORIES SERONO SA, priority 2005, published 2008).

Tests used:
sciatic nerve crush mice = experiment: Neuropathy induced by sciatic nerve crush, electrophysiological recording (CMAP); assay type: in vivo, mouse
Method: […] 8 week-old females C57bl/6 RJ mice (Elevage Janvier, Le Genest-St-Isle, France) were used. They were divided into 6 groups (n=6): • (a) nerve crush/Vehicle (Saline/0.02% BSA); • (b) nerve crush/SDF-1α (3 μg/kg); • (c) nerve crush/SDF-1α (10 μg/kg); • (d) nerve crush/SDF-1α (30 μg/kg); • (e) nerve crush/SDF-1α (100 μg/kg); • (f) nerve crush/IL-6 (30 μg/kg).
The animals were anaesthetized by inhalation of 3% Isoflurane (Baxter). The right sciatic nerve was surgically exposed at mid thigh level and crushed at 5 mm proximal to the trifurcation of the sciatic nerve. The nerve was crushed twice for 30s with a haemostatic forceps (width 1.5 mm; Koenig; Strasbourg; France) with a 90-degree rotation between each crush.
Electromyographical (EMG) testing was performed once before the surgery day and each week during 3 weeks following the operation.
The day of nerve crush surgery was considered as dpl 0 (dpl=day post lesion). No test was performed during the 4 days following the crush.
From the day of nerve injury to the end of the study, SDF-1α, IL-6 or Vehicle were administered daily by subcutaneous injections (s.c.) route, 5 days per week.
Electrophysiological recordings were performed using a Neuromatic 2000M electromyograph (EMG) (Dantec, Les Ulis, France). Mice were anaesthetized by inhalation of 3% Isofluran® (Baxter). The normal body temperature was maintained using a heated operating table (Minerve, Esternay, France).
Compound muscle action potential (CMAP) was measured in the gastrocnemius muscle after a single 0.2 ms stimulation of the sciatic nerve at a supramaximal intensity (12.8 mA). The amplitude (mV) and the latency (ms) of the action potential were measured on the operated leg. The measures was also registered on the contralateral (uncrushed) leg of Vehicle treated animals (Baseline). The amplitude is indicative of the number of active motor units, while the distal latency indirectly reflects motor nerve conduction and neuromuscular transmission velocities, which depends in part on the degree of myelination.
Global analysis of the data was performed using one-way ANOVA. Dunnett's test was used further, and data were compared to the “vehicle” control. The level of significance was set at a: p<0.001; b or **: p<0.01; c or *: p<0.05; d: p<0.1. The results were expressed as mean ±standard error of the mean (s.e.m.).
The sciatic nerve crush model described in Example 4 above was carried out to test SDF-1α variant as defined in SEQ ID NO: 4 and the mice were divided into the following 2 groups (n=6):
The SDF-1α variant used in this example and encoded by SEQ ID NO: 4 was expressed with an additional N terminal Methionine. The CMAP duration (time needed for a depolarization and a repolarization session) was also recorded.
The sciatic nerve crush model described in Example 4 above was carried out to test Met-SDF-1α (as defined in SEQ ID NO: 7) and the mice were divided into the following 2 groups (n=6):
(b) nerve crush/Met-SDF-1α variant at 100, 30, and 10 μg/kg s.c.

[1] = test system: leukocytes recruited in the peritoneal cavity; experiment: In vivo model of peritoneal cell recruitment; set-up: species or system mouse; settings: 4 μg i.p. in Balb/C mice, 4 hours post injection
Method: 8-12 week old, female Balb/C mice (Janvier, France) were injected intra peritoneally (i.p.) with 200 μl NaCl (0.9%, LPS free) or chemokine 4 μg (WT SDF-1α or SDF-1α variant according to SEQ ID NO:4 diluted in 200 μl NaCl (0.9%, LPS free). […] of WT or mutant SDF-1α, mice were sacrificed by CO2 asphyxiation, the peritoneal cavity was washed with 3×5 ml ice cold PBS and the total lavage was pooled for individual mice. Total cells collected were counted by haemocytometer (Neubauer, Germany).

[2] = test system: primary mixed cortical cultures stimulated with LPS; experiment: Cytokine release (TNF-α, IL-6) from LPS stimulated primary mixed cortical cultures; assay type: cell-based, mouse; settings: for levels of IL-6 secretion / levels of TNF-α secretion: pre-incubation 3 h (SDF proteins 0.001, 0.1, 10 ng/ml; IL-10 10 ng/ml; dexamethasone 25 pM), then LPS 5 ng/ml 48 h, ELISA, compared to untreated cells
Method: Culturing of primary cells was performed as described (Lubetzki et al., 1993) using brain tissue from embryos isolated from NMRI mice at 16 days post-coitum. Cerebral hemispheres were dissected from embryo brains, dissociated via trypsin digestion and the single cell suspension was seeded at 5×10^4 cells in 50 μl myelination medium per well onto BioCoat® poly-L-lysine coated 96-well plates (356516, Becton Dickinson). The myelination medium consisted of Bottenstein-Sato medium (Bottenstein and Sato, 1979; Sadir et al., 2001), supplemented with 1% FCS, 1% penicillin-streptomycin solution (Seromed) and recombinant platelet-derived growth factor AA (PDGF-AA, R&D Systems) at 10 ng/mL.
For testing the effects of SDF-1α and SDF-1α variant (as defined in SEQ ID NO: 4) on LPS stimulated cultures, cells were allowed to grow for two weeks. At day 14 cells were pre-incubated with increasing concentrations (0.001, 0.1 and 10 ng/ml) of the corresponding proteins into 25 μl of medium for three hours at 37° C. and 10% CO2. LPS was then supplemented to the cells at the concentration of 5 ng/ml into 25 μl of medium to obtain a final volume of 100 μl and incubated for 48 hours. Supernatants were collected at day 16 and the levels of TNF-α and IL-6 (the major cytokines released by activated microglia) were measured via specific ELISAs purchased from R&D systems (DuoSet mouse TNF-α ELISA DY410, mouse IL-6 ELISA DY406).
Global analysis of the data was performed using one-way ANOVA. Dunnett's test was used further, and data were compared to the “untreated cells”. The level of significance was set at a: p<0.001; b or **: p<0.01; c or *: p<0.05; d: p<0.1. The results were expressed as mean ±standard error of the mean (s.e.m.).

| Molecule | CMAP latency vs vehicle treated mice (sciatic nerve crush mice; 100, 30, and 10 μg/kg s.c., day 7 and day 14 after crush) | CMAP duration vs vehicle treated mice (sciatic nerve crush mice; 30 μg/kg s.c., 7 dpl and 22 dpl) | CMAP amplitude (sciatic nerve crush mice; 30 μg/kg s.c., 22 dpl) | CMAP latency vs vehicle treated mice (sciatic nerve crush mice; 30 μg/kg s.c., 22 dpl) | CMAP latency vs vehicle treated mice (sciatic nerve crush mice; 30 μg/kg s.c., especially at 7 dpl) | leukocyte recruitment in the peritoneal cavity [1] | levels of IL-6 secretion [2] | levels of TNF-α secretion [2] | best concentration for decrease of TNF-α and IL-6 secretion ([2]; tested 0.001, 0.1 and 10 ng/ml, LPS 5 ng/ml 48 h) |
| --- | --- | --- | --- | --- | --- | --- | --- | --- | --- |
| Met-SDF-1α: Human mature isoform SDF-1α having an additional N-terminal Methionine, SEQ ID NO: 7 | significantly reduced |  |  |  |  |  |  |  |  |
| SDF-1α variant: Triple mutant of SDF-1α (Lys24Ala, His25Ala, Lys27Ala), SEQ ID NO: 4, reduced GAG binding activity (protein, Human) KPVSLSYRCPCRFFESHVARANVAALAILNTPNCALQIVARLKNNNRQVCIDPKLKWIQEYLEKALNK |  | reduced | significant increase | positive effect | significantly reduced | did not recruit leukocytes | significantly decreased | significantly decreased | 10 ng/mL |
| IL-10: control molecule shown to inhibit cytokine release from activated microglia (protein, UniProt P18893 19-178, looked up) Interleukin-10: SRGQYSREDNNCTHFPVGQSHMLLELRTAFSQVKTFFQTKDQLDNILLTDSLMQDFKGYLGCQALSEMIQFYLVEVMPQAEKHGPEIKEHLNSLGEKLKTLRMRLRRCHRFLPCENKSKAVEQVKSDFNKLQDQGVYKAMNEFDIFINCIEAYMMIKMKS |  |  |  |  |  |  | down regulated | down regulated |  |
